Publication PMC4318572 (Journal of biomolecular screening, 2014)

B1: GST–Fyn SH3–strep (domain or fragment)
chain: not shown

Tests used:
Experiment in all cases: AlphaScreen or HTRF
GST–Fyn SH3–strep = biological target: B1
P233A Tau = P233A Tau (human, UniProt P10636-8 1-441, P233A)
P236A Tau = P236A Tau (human, UniProt P10636-8 1-441, P236A)
4R1N Tau = 4R1N Tau (human, UniProt P10636-7 1-412)
4R0N Tau = 4R0N Tau (human, UniProt P10636-6 1-383)
3R2N Tau = 3R2N Tau (human, UniProt P10636-5 1-410)
3R1N Tau = 3R1N Tau (human, UniProt P10636-4 1-381)
3R0N Tau = 3R0N Tau (human, UniProt P10636-2 1-352)
P203A Tau = P203A Tau (human, UniProt P10636-8 1-441, P203A)
[1] = biological target: Tau with P232 mutated to alanine (human, UniProt P10636-8 1-441, P232 (alanine scan))

Measured: binding result

YGRKKRRQRRRRSRTPSLPTPPTREPKK [Tat-tagged peptide spanning the 5th and 6th PXXP motifs in Tau]
binds: GST–Fyn SH3–strep

B1
binds: P233A Tau | P236A Tau | 4R1N Tau | 4R0N Tau | 3R2N Tau | 3R1N Tau | 3R0N Tau | P203A Tau | [1]
